Patent US20230365648A1 (BITTERROOT BIO, published 2023)

Key:
Assay in all cases: BLI (Octet R8), construct captured on anti-human Fc sensor, CD47 in solution
rhCD47-his (human CD47) = target: T1, rhCD47-his (human CD47) (human, UniProt Q08722 19-139)
T1 construct: Soluble analyte in the Octet assay; not shown: his tag

mouse CD47 = target: T2, mouse CD47 (mouse, UniProt Q61735 19-140, limits assumed)
T2 construct: also called mouse CD47 protein
T2 sequence (looked up): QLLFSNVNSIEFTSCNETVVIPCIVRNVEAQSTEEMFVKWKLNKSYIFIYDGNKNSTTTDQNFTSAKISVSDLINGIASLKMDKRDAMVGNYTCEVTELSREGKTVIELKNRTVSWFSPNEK

rat CD47 = target: T3, rat CD47 (rat, UniProt P97829 19-140, limits assumed)
T3 construct: also called rat CD47 protein
T3 sequence (looked up): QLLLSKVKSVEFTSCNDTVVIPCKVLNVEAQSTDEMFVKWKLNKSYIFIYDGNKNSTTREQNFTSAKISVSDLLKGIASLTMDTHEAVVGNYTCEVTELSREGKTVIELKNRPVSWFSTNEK

Measured: binding result

T1 sequence (Q08722 19-139 limits assumed): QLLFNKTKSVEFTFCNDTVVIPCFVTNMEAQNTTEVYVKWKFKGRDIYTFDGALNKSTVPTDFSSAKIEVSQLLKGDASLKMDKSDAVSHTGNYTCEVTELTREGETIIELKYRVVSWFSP

B1: Construct 50 (SIRPα fusion polypeptide SEQ ID NO: 10 construct without the YTE mutation, i.e. with the wild type IgG4 Fc domain) (Fc fusion)
chain: EEELQIIQPDKSVLVAAGETATLRCTITSLFPVGPIQWFRGAGPGRVLIYNQRQGPFPRVTTVSDTTKRNNMDFSIRIGNITPADAGTYYCIKFRKGSPDDVEFKSGAGTELSVRAKPSAAAPPCPPCPAPEFLGGPSVFLFPPKPKDTLMISRTPEVTCVVVDVSQEDPEVQFNWYVDGVEVHNAKTKPREEQFNSTYRVVSVLTVLHQDWLNGKEYKCKVSNKGLPSSIEKTISKAKGQPREPQVYTLPPSQEEMTKNQVSLTCLVKGFYPSDIAVEWESNGQPENNYKTTPPVLDSDGSFFLYSRLTVDKSRWQEGNVFSCSVMHEALHNHYTQKSLSLSLGK
notes: It is described as the same construct as Construct 67 without the YTE mutation
binds: rhCD47-his (human CD47) | mouse CD47 | rat CD47

B2: Construct 67 (SIRPα fusion polypeptide of SEQ ID NO: 10, SIRPα domain of SEQ ID NO: 2 and IgG4 Fc domain with a YTE mutation) (Fc fusion)
chain: EEELQIIQPDKSVLVAAGETATLRCTITSLFPVGPIQWFRGAGPGRVLIYNQRQGPFPRVTTVSDTTKRNNMDFSIRIGNITPADAGTYYCIKFRKGSPDDVEFKSGAGTELSVRAKPSAAAPPCPPCPAPEFLGGPSVFLFPPKPKDTLYITREPEVTCVVVDVSQEDPEVQFNWYVDGVEVHNAKTKPREEQFNSTYRVVSVLTVLHQDWLNGKEYKCKVSNKGLPSSIEKTISKAKGQPREPQVYTLPPSQEEMTKNQVSLTCLVKGFYPSDIAVEWESNGQPENNYKTTPPVLDSDGSFFLYSRLTVDKSRWQEGNVFSCSVMHEALHNHYTQKSLSLSLGK
binds: rhCD47-his (human CD47) | mouse CD47 | rat CD47
